Key:
[1] = biological target: talin (human) (UniProt Q9Y490); assay: FRAP on a spinning disk confocal microscope
[2] = biological target: talin (human) (UniProt Q9Y490); assay: FRAP on a TIRF microscope
[3] = biological target: talin (human) (UniProt Q9Y490); assay: TIRF microscopy of recruitment to a protein-micropatterned surface

koff [1]: 0.0029 s⁻¹
koff [2]: 0.0033 s⁻¹
koff [3]: 0.0034 s⁻¹
Substance: EGFP-vinculin 1-851 (Vh) (from UniProt P18206 1-851) (domain or fragment)
